Experimental data taken from the Human Domainome abundance scans (Beltran et al. 2025).
± gives the uncertainty stated by the source.

B1: GA-binding protein alpha chain, residues 172 to 250; numbered along this chain, Q06546 (parent)
chain: GYRKEQERLGIPYDPIQWSTDQVLHWVVWVMKEFSMTDIDLTTLNISGRELCSLNQEDFFQRVPRGEILWSHLELLRKY

Variants of: B1
Experiment: abundance fitness (aPCA) (normalised: wild type 0, dead -1); higher = more abundant; growth selection in yeast, the domain comes from the species named
Conditions: Homo sapiens

Going from GYRKEQERLGIPYDPIQWSSDQVLHWVVWVMKEFSMTDIDLTTLNISGRELCSLNQEDFFQRVPRGEILWSHLELLRKY [T20S] to GYRKEQERLGIPYDPIQWSWDQVLHWVVWVMKEFSMTDIDLTTLNISGRELCSLNQEDFFQRVPRGEILWSHLELLRKY [T20W], the abundance fitness falls from 0.041 ± 0.036 to -0.516 ± 0.061.

First: GYRKEQERLGIPYDPIQWSYDQVLHWVVWVMKEFSMTDIDLTTLNISGRELCSLNQEDFFQRVPRGEILWSHLELLRKY [T20Y]
Second: GYRKEQERLGIPYDPIQWSVDQVLHWVVWVMKEFSMTDIDLTTLNISGRELCSLNQEDFFQRVPRGEILWSHLELLRKY [T20V]
The abundance fitness of the first is lower: -0.529 ± 0.11 for the first, -0.03 ± 0.039 for the second.

First: GYRKEQERLGIPYDPIQWSTDQVPHWVVWVMKEFSMTDIDLTTLNISGRELCSLNQEDFFQRVPRGEILWSHLELLRKY [L24P]
Second: GYRKEQERLGIPYDPIQWSTDQVHHWVVWVMKEFSMTDIDLTTLNISGRELCSLNQEDFFQRVPRGEILWSHLELLRKY [L24H]
The abundance fitness of the first is lower: -1 ± 0.13 for the first, 0.029 ± 0.069 for the second.

GYRKEQERLGIPYDPIQWSTDQVSHWVVWVMKEFSMTDIDLTTLNISGRELCSLNQEDFFQRVPRGEILWSHLELLRKY [L24S] and GYRKEQERLGIPYDPIQWSTDQVKHWVVWVMKEFSMTDIDLTTLNISGRELCSLNQEDFFQRVPRGEILWSHLELLRKY [L24K] are within error of each other in abundance fitness: -0.104 ± 0.042 for the first, -0.038 ± 0.085 for the second.

GYRKEQERLGIPYDPIQWSTDQVEHWVVWVMKEFSMTDIDLTTLNISGRELCSLNQEDFFQRVPRGEILWSHLELLRKY [L24E] and GYRKEQERLGIPYDPIQWSTDQVIHWVVWVMKEFSMTDIDLTTLNISGRELCSLNQEDFFQRVPRGEILWSHLELLRKY [L24I] are within error of each other in abundance fitness: -0.088 ± 0.055 for the first, -0.091 ± 0.064 for the second.

GYRKEQERLGIPYDPIQWSTDQVMHWVVWVMKEFSMTDIDLTTLNISGRELCSLNQEDFFQRVPRGEILWSHLELLRKY [L24M] and GYRKEQERLGIPYDPIQWSTDQVFHWVVWVMKEFSMTDIDLTTLNISGRELCSLNQEDFFQRVPRGEILWSHLELLRKY [L24F] are within error of each other in abundance fitness: -0.011 ± 0.038 for the first, -0.119 ± 0.072 for the second.

Going from GYRKEQERLGIPYDPIQWSTDQVGHWVVWVMKEFSMTDIDLTTLNISGRELCSLNQEDFFQRVPRGEILWSHLELLRKY [L24G] to GYRKEQERLGIPYDPIQWSTDQVCHWVVWVMKEFSMTDIDLTTLNISGRELCSLNQEDFFQRVPRGEILWSHLELLRKY [L24C], the abundance fitness rises from -0.109 ± 0.03 to 0.003 ± 0.046.

GYRKEQERLGIPYDPIQWSTDQVNHWVVWVMKEFSMTDIDLTTLNISGRELCSLNQEDFFQRVPRGEILWSHLELLRKY [L24N] and GYRKEQERLGIPYDPIQWSTDQVDHWVVWVMKEFSMTDIDLTTLNISGRELCSLNQEDFFQRVPRGEILWSHLELLRKY [L24D] are within error of each other in abundance fitness: -0.075 ± 0.087 for the first, -0.171 ± 0.11 for the second.

Compared with GYRKEQERLGIPYDPIQWSTDQVAHWVVWVMKEFSMTDIDLTTLNISGRELCSLNQEDFFQRVPRGEILWSHLELLRKY [L24A], GYRKEQERLGIPYDPIQWSTDTVLHWVVWVMKEFSMTDIDLTTLNISGRELCSLNQEDFFQRVPRGEILWSHLELLRKY [Q22T] is lower in abundance fitness: -0.083 ± 0.044 for the first, -0.875 ± 0.091 for the second.

GYRKEQERLGIPYDPIQWSTDFVLHWVVWVMKEFSMTDIDLTTLNISGRELCSLNQEDFFQRVPRGEILWSHLELLRKY [Q22F] and GYRKEQERLGIPYDPIQWSTDVVLHWVVWVMKEFSMTDIDLTTLNISGRELCSLNQEDFFQRVPRGEILWSHLELLRKY [Q22V] are within error of each other in abundance fitness: -0.792 ± 0.16 for the first, -0.992 ± 0.097 for the second.

First: GYRKEQERLGIPYDPIQWSTDDVLHWVVWVMKEFSMTDIDLTTLNISGRELCSLNQEDFFQRVPRGEILWSHLELLRKY [Q22D]
Second: GYRKEQERLGIPYDPIQWSTDSVLHWVVWVMKEFSMTDIDLTTLNISGRELCSLNQEDFFQRVPRGEILWSHLELLRKY [Q22S]
The abundance fitness of the first is higher: -0.072 ± 0.11 for the first, -0.646 ± 0.052 for the second.

Compared with GYRKEQERLGIPYDPIQWSTDIVLHWVVWVMKEFSMTDIDLTTLNISGRELCSLNQEDFFQRVPRGEILWSHLELLRKY [Q22I], GYRKEQERLGIPYDPIQWSTDAVLHWVVWVMKEFSMTDIDLTTLNISGRELCSLNQEDFFQRVPRGEILWSHLELLRKY [Q22A] is higher in abundance fitness: -0.899 ± 0.18 for the first, -0.295 ± 0.052 for the second.

GYRKEQERLGIPYDPIQWSTDYVLHWVVWVMKEFSMTDIDLTTLNISGRELCSLNQEDFFQRVPRGEILWSHLELLRKY [Q22Y] and GYRKEQERLGIPYDPIQWSTDKVLHWVVWVMKEFSMTDIDLTTLNISGRELCSLNQEDFFQRVPRGEILWSHLELLRKY [Q22K] are within error of each other in abundance fitness: -0.763 ± 0.19 for the first, -0.787 ± 0.2 for the second.

First: GYRKEQERLGIPYDPIQWSTDRVLHWVVWVMKEFSMTDIDLTTLNISGRELCSLNQEDFFQRVPRGEILWSHLELLRKY [Q22R]
Second: GYRKEQERLGIPYDPIQWSTDNVLHWVVWVMKEFSMTDIDLTTLNISGRELCSLNQEDFFQRVPRGEILWSHLELLRKY [Q22N]
The abundance fitness of the first is lower: -0.998 ± 0.094 for the first, -0.039 ± 0.098 for the second.

Compared with GYRKEQERLGIPYDPIQWSTDPVLHWVVWVMKEFSMTDIDLTTLNISGRELCSLNQEDFFQRVPRGEILWSHLELLRKY [Q22P], GYRKEQERLGIPYDPIQWSTDMVLHWVVWVMKEFSMTDIDLTTLNISGRELCSLNQEDFFQRVPRGEILWSHLELLRKY [Q22M] is higher in abundance fitness: -0.991 ± 0.12 for the first, -0.219 ± 0.06 for the second.

GYRKEQERLGIPYDPIQWSTDHVLHWVVWVMKEFSMTDIDLTTLNISGRELCSLNQEDFFQRVPRGEILWSHLELLRKY [Q22H] and GYRKEQERLGIPYDPIQWSTDEVLHWVVWVMKEFSMTDIDLTTLNISGRELCSLNQEDFFQRVPRGEILWSHLELLRKY [Q22E] are within error of each other in abundance fitness: -0.052 ± 0.085 for the first, 0 ± 0.027 for the second.

Compared with GYRKEQERLGIPYDPIQWSTDCVLHWVVWVMKEFSMTDIDLTTLNISGRELCSLNQEDFFQRVPRGEILWSHLELLRKY [Q22C], GYRKEQERLGIPYDPIQWSTDWVLHWVVWVMKEFSMTDIDLTTLNISGRELCSLNQEDFFQRVPRGEILWSHLELLRKY [Q22W] is lower in abundance fitness: -0.543 ± 0.12 for the first, -1 ± 0.18 for the second.
